From patent US20090068174

T1: D-val-leu-lys-pNA
T1 chain: VLK

T2: human recombinant IFN-γ, P01579
T2 chain: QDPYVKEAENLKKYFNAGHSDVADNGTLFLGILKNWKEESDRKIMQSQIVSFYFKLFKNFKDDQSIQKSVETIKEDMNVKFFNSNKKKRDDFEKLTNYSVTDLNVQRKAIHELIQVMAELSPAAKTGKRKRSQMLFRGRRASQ

T3: mouse recombinant IFN-γ, P01580
T3 chain: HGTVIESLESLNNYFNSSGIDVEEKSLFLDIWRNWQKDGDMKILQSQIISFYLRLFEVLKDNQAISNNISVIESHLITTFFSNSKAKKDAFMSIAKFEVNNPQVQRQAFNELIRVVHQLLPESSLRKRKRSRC

T4: mouse recombinant TNF-α, P06804
T4 chain: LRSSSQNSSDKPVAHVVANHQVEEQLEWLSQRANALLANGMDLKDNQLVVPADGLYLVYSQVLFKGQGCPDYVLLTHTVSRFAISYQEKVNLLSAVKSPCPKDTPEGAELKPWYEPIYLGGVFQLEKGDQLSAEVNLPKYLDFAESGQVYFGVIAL


Assays:
D-val-leu-lys-pNA = target: T1, D-val-leu-lys-pNA
[1] = target: T2, human recombinant IFN-γ, P01579
[2] = target: human recombinant TNF-α, P01375
[3] = target: T3, mouse recombinant IFN-γ, P01580
[4] = target: T4, mouse recombinant TNF-α, P06804

Sequence of human recombinant TNF-α, P01375 (P01375 77-233): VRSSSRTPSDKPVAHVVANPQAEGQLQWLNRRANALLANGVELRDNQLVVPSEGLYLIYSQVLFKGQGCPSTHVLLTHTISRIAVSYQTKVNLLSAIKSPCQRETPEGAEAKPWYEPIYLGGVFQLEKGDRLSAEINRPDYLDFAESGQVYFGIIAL

| Protein | Specific activity: hydrolysis of Val-leu-lys-pNA (absorbance at 405 nm) (mOD/min/µg protein) (D-val-leu-lys-pNA) | Proteolysis by Western blotting [1] | Proteolysis by Western blotting (50 ng cytokine, 2.5-10 ng protease, overnight at 37° C.) [2] | Specific activity: hydrolysis of salmon protamine (ninhydrin assay) (nmoles Leucine/30 min./µg protein) (salmon protamine sulfate) | Proteolysis by Western blotting [3] | Proteolysis by Western blotting [4] |
| --- | --- | --- | --- | --- | --- | --- |
| Aspergillus oryzae deuterolysin (neutral protease II) (protein) TEVTDCKGDAESSLTTALSNAAKLANQAAEAAESGDESKFEEYFKTTDQQTRTTVAERLRAVAKEAGSTSGGSTTYHCNDPYGYCEPNVLAYTLPSKNEIANCDIYYSELPPLAQKCHAQDQATTTLHEFTHAPGVYQPGTEDLGYGYDAATQLSAQDALNNADSYALYANAIELKC | 2.3 | both deuterolysin and 26 kDa protease cleave human IFN-γ | deuterolysin was without significant effect | 677 |  |  |
| Aspergillus oryzae alkaline protease (protein) GLTTQKSAPWGLGSISHKGQQSTDYIYDTSAGEGTYAYVVDSGVNVDHEEFEGRASKAYNAAGGQHVDSIGHGTHVSGTIAGKTYGIAKKASILSVKVFQGESSSTSVILDGFNWAANDIVSKKRTSKAAINMSLGGGYSKAFNDAVENAFEQGVLSVVAAGNENSDAGQTSPASAPDAITVAAIQKSNNRASFSNFGKVVDVFAPGQDILSAWIGSSSATNTISGTSMATPHIVGLSLYLAALENLDGPAAVTKRIKELATKDWKDVKGSPNLLAYNGNA | 117 | the protease did not cleave human IFN-γ | Alkaline protease and, to a lesser extent, 26 kDa protease each produced a similar pattern of cleavage | 951 | alkaline protease (AP) purified from the protease powder prepared according to Example 1 evidenced the same substrate specificity | alkaline protease (AP) purified from the protease powder prepared according to Example 1 evidenced the same substrate specificity |
| Aspergillus oryzae 26 kDa protease (protein) HASADAWASSKAISSTSSPSSFKMRFISVSSLLLALAPALNAVPVEVAGSAQGLDVTLSQVGNTRIKAWKNTGSEDVTFVHLNFFKDAAPVQKVSLFRNATEVQFQGIKQRLITEGLSDDALTTLAPGATIEDEFDIASTSDLSEGGTITINSNGLVPITTDNKVTGYIPFTSNELSIDVDAAEAASVTQAVKILERRTKVTSCSGSRLSALQTALRNTVSLARAAATAAQSGSSSRFQEYFKTTSSSTRSTVAARLNAVANEAASTSSGSTTYYCSDVYGYCSSNVLAYTLPSYNIIANCDLYYSYLPALTSTCHAQDQATTTLHEFTHAPGVYSPGTDDLGYGYSAATALSASQALLNADTYALFANAVNLNC | 2.1 | both deuterolysin and 26 kDa protease cleave human IFN-γ | Alkaline protease and, to a lesser extent, 26 kDa protease each produced a similar pattern of cleavage | 679 |  |  |
